Measured values reported in patent publication US20100255012A1.

Columns and labels:
Assay in all cases: non-covalent nano-electrospray mass spectrometry at 0.01-10 µM, value at low concentrations; self-association
2F8-HG CH3 mutant F273A = molecular target: 2F8-HG CH3 mutant F273A
2F8-HG-L236V = molecular target: 2F8-HG-L236V
2F8-HG-Y275A = molecular target: 2F8-HG-Y275A

Question: For 2F8-HG CH3 mutant F273A (antibody), which percentage molecules present as monomers (2F8-HG CH3 mutant F273A) is on record?
Answer: Its percentage molecules present as monomers is 100%.

Question: Which percentage molecules present as monomers (2F8-HG-L236V) does the source give for 2F8-HG-L236V (antibody) here?
Answer: The percentage molecules present as monomers was 100%.

Question: 2F8-HG-Y275A (antibody) was tested. Which percentage molecules present as monomers (2F8-HG-Y275A) did it give?
Answer: Its percentage molecules present as monomers is 100%.
